The text below walks through data of paper PMC9381590, “DDX39B drives colorectal cancer progression by promoting the stability and nuclear translocation of PKM2” (Signal Transduction and Targeted Therapy, 2022).

First the molecules themselves.
B1: purified recombinant PKM2 1-219 aa protein (domain or fragment)
chain: not shown
notes: also called PKM2^1–218,219aa; source: recombinant, purified
B2: purified STUB1 (natural protein, UniProt Q9UNE7 1-303, looked up)
chain: MKGKEEKEGGARLGAGGGSPEKSPSAQELKEQGNRLFVGRKYPEAAACYGRAITRNPLVAVYYTNRALCYLKMQQHEQALADCRRALELDGQSVKAHFFLGQCQLEMESYDEAIANLQRAYSLAKEQRLNFGDDIPSALRIAKKKRWNSIEERRIHQESELHSYLSRLIAAERERELEECQRNHEGDEDDSHVRAQQACIEAKHDKYMADMDELFSQVDEKRKKRDIPDYLCGKISFELMREPCITPSGITYDRKDIEEHLQRVGHFDPVTRSPLTQEQLIPNLAMKEVIDAFISENGWVEDY
notes: STIP1 homology and U-box-containing protein 1 (STUB1); the methods tell only of GST- and His-fused proteins from E. coli BL21 (DE3); source: recombinant, purified

The target in test [1] is B2. Nature of the test: in vitro competitive binding analysis; purified proteins; increasing amounts of DDX39B added to PKM2 (WT or 1-219 aa) and STUB1; western blotting. The settings on record: both partners purified. A general note: Immunoblotting shows a protein as a band on a membrane.
Test [2] deals with T1, purified recombinant PKM2 (UniProt P14618 1-531).
T1 construct: pyruvate kinase isoform M2 (PKM2); the methods tell only of GST- and His-fused proteins from E. coli BL21 (DE3); also called PKM2^WT; rPKM2; source: recombinant, purified
T1 sequence (P14618 whole entry, the tested form may be a part, canonical isoform): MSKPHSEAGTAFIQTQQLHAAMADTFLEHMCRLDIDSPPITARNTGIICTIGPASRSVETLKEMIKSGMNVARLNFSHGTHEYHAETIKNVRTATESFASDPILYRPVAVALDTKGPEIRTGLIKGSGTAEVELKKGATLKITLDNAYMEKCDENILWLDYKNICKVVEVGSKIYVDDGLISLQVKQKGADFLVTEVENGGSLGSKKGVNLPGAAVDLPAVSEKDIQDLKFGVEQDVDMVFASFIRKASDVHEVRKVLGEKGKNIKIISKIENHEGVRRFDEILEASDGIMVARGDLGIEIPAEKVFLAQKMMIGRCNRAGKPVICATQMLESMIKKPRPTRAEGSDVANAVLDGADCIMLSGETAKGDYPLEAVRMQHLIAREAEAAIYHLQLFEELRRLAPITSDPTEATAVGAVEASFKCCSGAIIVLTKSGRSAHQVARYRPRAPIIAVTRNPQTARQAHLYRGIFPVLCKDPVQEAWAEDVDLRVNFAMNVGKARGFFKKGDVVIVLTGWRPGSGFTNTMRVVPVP
The description is as above. The settings on record: both partners purified.

On to B1, for which, in test [1], the binding result is recorded as “binds”.

As for B2, in test [2], the binding result is reported as “binds”.
